Data set [1] deals with T1, PU.1 Ets domain (UniProt P17947 170-253). Description: competition.
The target in the next data set is T2, Elk-1 Ets domain (UniProt P19419 5-86).
T2 sequence: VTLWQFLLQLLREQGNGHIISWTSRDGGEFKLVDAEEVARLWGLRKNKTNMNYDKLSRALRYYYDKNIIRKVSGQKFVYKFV
Description: EMSA.

In data set [2] the target is T1, PU.1 Ets domain. Description: EMSA.

B1: IR5 MT1 (dsDNA)
DNA 1: CTCACTTTTGCGTCCCGCCGC
DNA 2: GCGGCGGGACGCAAAAGTGAG
For the molecule B1, the binding result in the data set with PU.1 Ets domain [1] was “no binding”.

B2: IR5 WT (dsDNA)
DNA 1: CTCACTTCCGCGTCCCGCCGC
DNA 2: GCGGCGGGACGCGGAAGTGAG
Consider B2, for which the binding result was “no binding” with Elk-1 Ets domain and “binds” with PU.1 Ets domain [2].

B3: IR5 MT2 (dsDNA)
DNA 1: CTCACGGCCGCGTCCCGCCGC
DNA 2: GCGGCGGGACGCGGCCGTGAG
B3: the binding result with PU.1 Ets domain [1] is “no binding”.

(Values after paper PMC3078326.)
